Patent US20210139579A1 (NBE THERAPEUTICS, published 2021)

Key:
[1] = molecular target: T1, Recombinant human twin strep-tagged ROR2 extracellular domain (human, UniProt Q01974 34-403); assay: ELISA on coated twin strep-tagged hROR2
T1 construct: extracellular domain; also called strep-tagged human ROR2; recombinant, purified hROR2
Method: (§1) Each well of a 96-well plate was coated with 100 μL of 2 μg/mL strep-tagged human ROR1 or ROR2 (from Example 5) in 0.1 M bicarbonate coating buffer (pH 9.6), and incubated for 12 h at 4° C.

[2] = molecular target: T2, StrepII-tagged human ROR1-extracellular domain (human, UniProt Q01973 30-406); assay: ELISA on coated strep-tagged hROR1, detected with anti-human Fc-gamma HRP
T2 construct: also called strep-tagged human ROR1; recombinant, purified hROR1
Method: as §1

[3] = molecular target: T3, human ROR1 (hROR1) on the cell surface (human, UniProt Q01973 30-937); assay: flow cytometry on human cancer cell lines, 2A2 at 2 µg/mL
T3 construct: whole, on cells; Endogenous on the human lines 697, MDA-MB-468, HS-578T, A549 and HT-29; ectopically expressed on murine EMT-6 cells (clone 14); also called full-length ROR1 (NP_005003.2)
T3 sequence (Q01973 30-937): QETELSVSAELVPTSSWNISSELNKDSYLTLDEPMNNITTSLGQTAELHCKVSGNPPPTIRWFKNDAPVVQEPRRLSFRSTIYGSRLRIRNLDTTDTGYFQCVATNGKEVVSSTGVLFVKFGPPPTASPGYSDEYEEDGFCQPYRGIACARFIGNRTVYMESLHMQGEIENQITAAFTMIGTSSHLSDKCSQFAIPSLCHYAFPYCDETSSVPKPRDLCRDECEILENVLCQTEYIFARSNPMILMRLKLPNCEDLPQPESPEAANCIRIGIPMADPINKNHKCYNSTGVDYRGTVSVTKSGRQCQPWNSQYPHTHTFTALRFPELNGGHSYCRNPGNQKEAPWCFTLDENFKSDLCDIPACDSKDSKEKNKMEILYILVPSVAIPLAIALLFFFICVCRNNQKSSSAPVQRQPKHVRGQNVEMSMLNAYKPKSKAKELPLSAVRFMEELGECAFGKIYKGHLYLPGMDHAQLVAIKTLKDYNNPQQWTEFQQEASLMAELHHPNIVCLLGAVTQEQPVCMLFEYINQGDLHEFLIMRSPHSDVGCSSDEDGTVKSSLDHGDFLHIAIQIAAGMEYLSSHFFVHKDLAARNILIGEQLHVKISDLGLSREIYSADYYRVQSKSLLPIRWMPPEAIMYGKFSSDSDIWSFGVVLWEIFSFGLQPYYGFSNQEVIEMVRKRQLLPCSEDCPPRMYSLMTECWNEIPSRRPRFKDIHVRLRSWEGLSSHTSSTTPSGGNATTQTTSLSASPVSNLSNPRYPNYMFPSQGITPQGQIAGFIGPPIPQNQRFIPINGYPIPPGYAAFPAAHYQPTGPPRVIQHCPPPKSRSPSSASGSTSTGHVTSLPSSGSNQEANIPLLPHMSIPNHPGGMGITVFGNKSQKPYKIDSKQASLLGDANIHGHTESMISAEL

T1 sequence (Q01974 other isoform, or with tags, fused parts or gaps): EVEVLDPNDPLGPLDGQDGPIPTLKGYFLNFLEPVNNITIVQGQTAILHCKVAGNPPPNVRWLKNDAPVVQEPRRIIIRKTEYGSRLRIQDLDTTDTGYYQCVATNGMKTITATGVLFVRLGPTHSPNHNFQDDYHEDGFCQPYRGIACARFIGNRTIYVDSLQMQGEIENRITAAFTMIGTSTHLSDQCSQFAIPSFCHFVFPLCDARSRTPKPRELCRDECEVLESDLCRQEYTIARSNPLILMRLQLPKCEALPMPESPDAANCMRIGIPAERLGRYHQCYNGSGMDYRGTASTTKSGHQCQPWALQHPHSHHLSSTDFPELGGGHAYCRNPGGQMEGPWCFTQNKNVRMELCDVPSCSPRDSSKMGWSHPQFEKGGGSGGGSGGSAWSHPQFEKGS
T2 sequence (Q01973 other isoform, or with tags, fused parts or gaps): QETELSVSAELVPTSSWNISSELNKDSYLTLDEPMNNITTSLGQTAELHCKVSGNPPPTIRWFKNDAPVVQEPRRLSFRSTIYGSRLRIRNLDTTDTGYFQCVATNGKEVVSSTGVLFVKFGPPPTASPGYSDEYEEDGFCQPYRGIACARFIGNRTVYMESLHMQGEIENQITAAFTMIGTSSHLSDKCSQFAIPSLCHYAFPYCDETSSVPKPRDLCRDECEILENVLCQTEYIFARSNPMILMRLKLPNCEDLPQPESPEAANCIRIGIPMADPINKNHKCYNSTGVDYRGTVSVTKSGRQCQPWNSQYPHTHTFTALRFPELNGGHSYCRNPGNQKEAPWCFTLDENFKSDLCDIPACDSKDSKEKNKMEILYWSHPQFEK

Binder | binding result [1] | binding result [2] | binding result [3]
ERR1-301 (mAb027) (antibody, human IgG1, V domains shown, Chimeric rabbit/human IgG1, lambda; not shown: Strep tag) VH: QEQLEESGGGLVTPGGSLTLTCTASGFTISTYHMSWVRQAPGKGLEWIGSIYAGSGSTYYASWVNGRFTISSNTTQNTVSLQMNSLTVADTATYFCARDHPSYGMDLWGPGTLVTVSS VL: SYELTQLPSVSVSLGQTARITCGGNSIGSKAVNWYQQKPGLAPGLLIYDDDERPSGVPDRFSASNSGDTATLTISGAQAEDEADYYCQLWDSSAVAYVFGGGTQLTVTG | no binding | binds | 
ERR1-403 (mAb035) (antibody, human IgG1, V domains shown, Chimeric rabbit/human IgG1, lambda; not shown: Strep tag) VH: QEQLKESGRGLVQPGGSLKLSCKASGFDFSGWYMTWVRQAPGKGLEWIGTIGTTKGRTYYASWVNGRFTISSDNAQNTVDLQMNSLTAADRATYFCVRGSDYFDLWGPGTLVTISS VL: SYELTQLPSVSVSLGQTARITCGGNSIGSKAVNWYQQKPGLAPGLLIYDDDERPSGVPARFSGSNSGDTATLTISGAQAGDEADYYCQLWDSSAGAYVFGGGTQLTVTG | no binding | binds | 
ERR1-Top43 (mAb036) (antibody, human IgG1, V domains shown, Chimeric rabbit/human IgG1, lambda; not shown: Strep tag) VH: QSLEESGGRLVTPGTPLTLTCTVSGFSLSSYWMSWVRQAPGKGLEWIGAIYGSGNTYYASWAKGRFTISKTSTTVDLKITSPTTEDTATYFCARDVHSTATDLWGPGTLVTISS VL: SYELTQLPSVSVSLGQTARITCGGNNIGSKAVNWYQQKPGLAPGLLIYNDDERPSGVPDRFSGSNSGDTATLTISGAQAGDEADYYCQLWDSSAGAYVFGGGTQLTVTG | no binding | binds | 
XBR1-402 (mAb031) (antibody, human IgG1, V domains shown, Chimeric rabbit/human IgG1, lambda; not shown: Strep tag) VH: QEQQKESGGGLFKPTDTLTLTCTASGFDISSYYMSWVRQAPGNGLEWIGAIGISGNAYYASWAKSRSTITRNTNLNTVTLKMTSLTAADTATYFCARDHPTYGMDLWGPGTLVTVSS VL: SYELTQLPSVSVSLGQTARITCEGNNIGSKAVHWYQQKPGLAPGLLIYDDDERPSGVPDRFSGSNSGDTATLTISGAQAGDEADYYCQVWDSSAYVFGGGTQLTVTG | no binding | binds | 
ERR1-324 (mAb034) (antibody, human IgG1, Chimeric rabbit/human IgG1, kappa; not shown: Strep tag) heavy: not shown light: ELVLTQTPSPVSAAVGGTVTINCQASQSVYGNNELAWYQQKPGQPPKLLIYRASILTSGVPSRFKGSGSGTQFTLTISNVQREDAATYYCLGGYVSQSYRAAFGGGTELEILRTVAAPSVFIFPPSDEQLKSGTASVVCLLNNFYPREAKVQWKVDNALQSGNSQESVTEQDSKDSTYSLSSTLTLSKADYEKHKVYACEVTHQGLSSPVTKSFNRGECGGGGGSLPETG | no binding | binds | 
2A2 (mAb066) (antibody, human IgG1, IgG with human IgG1 and kappa constant regions; also called anti-human ROR1 antibody 2A2; not shown: Strep tag) heavy: not shown light: DIVMTQSQKIMSTTVGDRVSITCKASQNVDAAVAWYQQKPGQSPKLLIYSASNRYTGVPDRFTGSGSGTDFTLTISNMQSEDLADYFCQQYDIYPYTFGGGTKLEIKRTVAAPSVFIFPPSDEQLKSGTASVVCLLNNFYPREAKVQWKVDNALQSGNSQESVTEQDSKDSTYSLSSTLTLSKADYEKHKVYACEVTHQGLSSPVTKSFNRGECGGGGGSLPETG |  |  | binds
ERR1-306 (mAb033) (antibody, human IgG1, V domains shown, Chimeric rabbit/human IgG1, lambda; not shown: Strep tag) VH: QEQLKESGGGLVQPGGSLKLSCKASGFDLSNYGVSWVRQAPGKGLEWIGYIDPTFDYTYYASWVNGRFSISRENTQNTVSLQINSLTPADTATYFCARWVYGVDDYGDGNWLDLWGQGTLVTISS VL: QFVLTQSPSVSAALGASAKLTCTLSSAHKTYTIDWYQQQQGEAPRYLMELKSDGSYTKGTGVPDRFSGSSSGADRYLIIPSVQADDEADYYCGTDYSGGYVFGGGTQLTVTG | no binding |  | 
